Measurements reported in publication PMC10353892.

Target: barrier-to-autointegration factor (BAF) (UniProt Q9VLU0)
Assay: GFP affinity purification, mass spectrometry
Conditions: reference: GFP-Ote wild type; sites S50,S54

“otefin (Ote; emerin) (from UniProt P20240) GFP-OteAA (S50A S54A)” was tested, and the “binding against the reference” value was “stronger”.
